According to patent publication US20240254201A1 (ACADEMY OF MILITARY MEDICAL SCIENCE PLA, published 2024):

Assays:
GPdMucin [1] = biological target: T1, GPdMucin (Ebola virus (EBOV), UniProt Q05320 33-632); assay: ELISA on coated truncated GP
T1 construct: domain: GPdMucin; also called GPΔMuc; GPdmucin-His6

GPdMucin [2] = biological target: T1, GPdMucin; assay: SPR, BIACORE 3000; 2G1 captured by anti-human IgG Fc on CM5, GPdMucin as analyte

B1: monoclonal antibody 2G1 (antibody, V domains shown)
VH: EVQLVESGGGLVKRGGSLRLSCVVSGYTFGGYSMHWVRQAPGKGLEWVSGISSSSYYKYYADSVKGRFTISRDNAKNSLYLQMNSLRAEDTAVYYCARDMGYCSGGSCPNFDFWGQGTTVTVSS
VL: DIQMTQSPSSLSASVGDRVTITCRTSQSISNYLNWYQQIPGKAPKLLISTASNLHSGVSSRFSGSGSGTHFTLTISSLQPEDFATYYCQQSYSTPSFGQGTKVEIKR
notes: also called 2G1-WT; wild-type 2G1
EC50 (GPdMucin [1]): 3.7 ng/mL
Kd (GPdMucin [2]): 734 pM
koff (GPdMucin [2]): 3.75e-05 s⁻¹
kon (GPdMucin [2]): 51100 M⁻¹ s⁻¹
